In this data set the test system is H-NS. As to the kind of experiment: EMSA. The settings on record: EMSA: ~5 ng DNA, 50 ng poly(dI-dC), 15 ul, 20 C 10 min; binding buffer not stated (cited); 7% polyacrylamide gel in TAE (Tris-HCl 40 mM pH 7.4, Na acetate …).

Substance “mdtJI promoter fragment, 588 bp (-229 to +359)” displayed a K half of 320 nM.

The record behind these values is paper PMC4636849.
